From patent US20130039933

Assays:
[1] = test system: A366 peptide (STING peptide substrate with alanine at 366)
[2] = test system: S366 peptide (STING peptide substrate with serine 366)

| Substance | Activity (cpm) [1] [cpm] | Activity (cpm) [2] [cpm] | Fold induction [2] [fold] |
| --- | --- | --- | --- |
| PIM2 | 1410 | 3720 | 2.63 |
| NEK7 | 3620 | 19100 | 5.28 |
| CK1δ | 15600 | 25200 | 1.62 |
| NEK6 | 5510 | 35600 | 6.45 |
